Measurements published in US20230158117A1, “COMPOSITION FOR PREVENTION OR TREATMENT OF […] COMPRISING TRIGONAL GLUCAGON/GLP-1/GIP RECEPTOR AGONIST OR CONJUGATE THEREOF AND METHOD USING THE SAME” (HANMI PHARM. CO., LTD., priority 2020, published 2023).
Bridges are numbered along the chain shown (N, C = ends). Where no end group is shown, it is not given here. [ ]: non-standard residue; d: D form. Aib = CC(C)(N)C(=O)O

B1: evolocumab (antibody, chains of the INN, looked up, V domains shown)
VH: EVQLVQSGAEVKKPGASVKVSCKASGYTLTSYGISWVRQAPGQGLEWMGWVSFYNGNTNYAQKLQGRGTMTTDPSTSTAYMELRSLRSDDTAVYYCARGYGMDVWGQGTTVTVSS
VL: ESALTQPASVSGSPGQSITISCTGTSSDVGGYNSVSWYQQHPGKAPKLMIYEVSNRPSGVSNRFSGSKSGNTASLTISGLQAEDEADYYCNSYTSTSMVFGGGTKLTVL
notes: conventional therapeutic agent for hyperlipidemia

Tests used:
human GCG receptor = biological target: T1, human GCG receptor (Homo sapiens, UniProt P47871); test: In vitro activity (cAMP accumulation, LANCE cAMP kit) in CHO cells expressing human GCG receptor; assay type: cell-based; conditions: long-acting conjugate, relative potency from cAMP EC50 compared to human GCG
T1 construct: expressed in transfected cells; host or cells: Chinese hamster ovary (CHO)
Procedure: (§1) Activities of the triple agonists and the long-acting conjugates thereof respectively prepared in Examples 1 and 2 were measured using transformed cell lines in which a GLP-1 receptor, a glucagon (GCG) receptor, and a GIP receptor were transformed by way of a method of measuring in vitro cellular activities.
(§2) The cell lines were transformed such that genes for the human GLP-1 receptor, the human GCG receptor, and the human GIP receptor were each expressed in Chinese hamster ovary (CHO), and were suitable for measuring activities of GLP-1, GCG, and GIP, respectively. Therefore, the activity for each part was measured using each of the transformed cell lines.
(§3) For measurement of the activity of the triple agonists and the long-acting conjugates thereof respectively prepared in Examples 1 and 2 to GCG, human GCG was subjected to a 4-fold serial dilution from 50 nM to 0.000048 nM, and the triple agonists and the long-acting conjugates thereof respectively prepared in Examples 1 and 2 were subjected to a 4-fold serial dilution from 400 nM to 0.00038 nM. A cultured solution was removed from the cultured CHO cells in which the human GCG receptor was expressed, and each of the serially diluted substances was added to the CHO cells in an amount of 5 μL. Then, a buffer solution including cAMP antibody was added thereto in an amount of 5 μL and cultured at room temperature for 15 minutes. Thereafter, a detection mix including a cell lysis buffer was added thereto in an amount of 10 μL for lysis of the cells, followed by reaction at room temperature for 90 minutes. Upon completion of the reaction, the cell lysates were applied to a LANCE cAMP kit (PerkinElmer, USA) to calculate EC50 values via accumulated cAMP, and the values were compared with each other.

human GIP receptor = biological target: T2, human GIP receptor (Homo sapiens, UniProt P48546); test: In vitro activity (cAMP accumulation, LANCE cAMP kit) in CHO cells expressing human GIP receptor; assay type: cell-based; conditions: long-acting conjugate, relative potency from cAMP EC50 compared to human GIP
T2 construct: expressed in transfected cells; host or cells: Chinese hamster ovary (CHO)
T2 sequence (P48546 22-466): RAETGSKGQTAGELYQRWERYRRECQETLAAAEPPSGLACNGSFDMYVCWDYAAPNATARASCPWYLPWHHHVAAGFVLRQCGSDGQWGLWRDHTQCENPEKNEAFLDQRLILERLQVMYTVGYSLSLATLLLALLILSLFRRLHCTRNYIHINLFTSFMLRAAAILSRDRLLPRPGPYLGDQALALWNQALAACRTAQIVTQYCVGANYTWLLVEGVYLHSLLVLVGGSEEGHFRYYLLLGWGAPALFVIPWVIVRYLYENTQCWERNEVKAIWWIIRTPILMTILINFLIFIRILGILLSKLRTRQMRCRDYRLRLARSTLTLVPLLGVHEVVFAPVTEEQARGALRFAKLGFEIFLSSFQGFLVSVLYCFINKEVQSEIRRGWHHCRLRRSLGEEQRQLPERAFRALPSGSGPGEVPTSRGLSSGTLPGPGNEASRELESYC
Procedure: as §1, §2
as §3, with “GIP,” for “GCG,”, “GIP” for “GCG”

human GLP-1 receptor = human GLP-1 receptor (Homo sapiens, UniProt P43220); test: In vitro activity (cAMP accumulation, LANCE cAMP kit) in CHO cells expressing human GLP-1 receptor; assay type: cell-based; set-up: expressed in transfected cells; host or cells: Chinese hamster ovary (CHO); conditions: long-acting conjugate, relative potency from cAMP EC50 compared to human GLP-1
human GLP-1 receptor, sequence (P43220 24-463): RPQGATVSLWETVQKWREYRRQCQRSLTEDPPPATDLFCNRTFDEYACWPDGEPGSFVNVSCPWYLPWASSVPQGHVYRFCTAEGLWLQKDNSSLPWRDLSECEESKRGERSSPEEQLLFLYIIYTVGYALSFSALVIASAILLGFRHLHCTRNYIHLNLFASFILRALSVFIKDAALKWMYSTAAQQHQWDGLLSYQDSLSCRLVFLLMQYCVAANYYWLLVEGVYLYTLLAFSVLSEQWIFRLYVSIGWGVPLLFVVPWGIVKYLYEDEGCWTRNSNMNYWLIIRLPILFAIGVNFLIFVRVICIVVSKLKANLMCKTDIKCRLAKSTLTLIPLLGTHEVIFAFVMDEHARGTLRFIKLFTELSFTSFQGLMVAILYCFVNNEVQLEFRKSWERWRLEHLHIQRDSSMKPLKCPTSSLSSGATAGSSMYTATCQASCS
Procedure: as §1, §2
as §3, with “activity of each” for “activity”, “GLP-1,” for “GCG,”, “GLP-1” for “GCG”

hyperlipidemia hamsters = test: Therapeutic effect on hyperlipidemia in fructose-fed hyperlipidemia hamsters; assay type: in vivo, Golden Syrian hamsters; conditions: 219.2 nmol/kg, QW; comparative example; FIG. 1
Excerpt: Golden Syrian hamsters (hereinafter referred to as hyperlipidemia hamsters) were fed with fructose for 2 weeks to induce a hyperlipidemia model. Among the triple agonists prepared in Example 1, SEQ ID NO: 42 (1.6 nmol/kg, 3.1 nmol/kg, Q2D) was selected, and the long-acting conjugate of the triple agonist having SEQ ID NO: 42 was repeatedly administered to the hamsters induced with hyperlipidemia for 3 weeks by subcutaneous administration. As a comparative example, therapeutic effects of evolocumab (219.2 nmol/kg, QW), as a conventional therapeutic agent, on hyperlipidemia were measured.

| Molecule | In vitro activity relative to native peptide (%) vs. Glucagon (human GCG receptor) | In vitro activity relative to native peptide (%) vs. GIP (human GIP receptor) | In vitro activity relative to native peptide (%) vs. GLP-1 (human GLP-1 receptor) | effects on total blood cholesterol level and blood LDL level (hyperlipidemia hamsters) |
| --- | --- | --- | --- | --- |
| 21 (Y[Aib]QGTFTSDYSKYLDECRAKEFVQWLLDHHPSSGQPPPS; bridge 16-20) [compound 21] | 1.6% | 0.2% | 0.1% | – |
| 77 (Y[Aib]QGTFTSDYSKYLDEKAAKDFVQWLLDHHPSSGQPPPSC; bridge 16-20) [compound 77] | 1.7% | 6.6% | 6.7% | – |
| 96 (Y[Aib]QGTFTSDYSKYLDEKRAKEFVQWLLDHCPSSGQPPPS; bridge 16-20) [compound 96] | 4.0% | 0.3% | 0.3% | – |
| 42 (Y[Aib]QGTFTSDYSKYLDEKRAKEFVQWLLDHHPSSGQPPPSC; bridge 16-20) [compound 42] | 23.1% | 1.2% | 3.1% | – |
| 50 (H[Aib]QGTFTSDYSKYLDEKRAKEFVQWLLDHHPSSGQPPPSC; bridge 16-20) [compound 50] | 6.9% | 0.7% | 15.4% | – |
| 22 (Y[Aib]QGTFTSDYSKCLDEKRAKEFVQWLLDHHPSSGQPPPS; bridge 16-20) [compound 22] | 0.9% | 0.5% | 0.1% | – |
| 43 (Y[Aib]QGTFTSDYSKYLDEKRAKEFVQWLLDHHCSSGQPPPS; bridge 16-20) [compound 43] | 13.5% | 0.6% | 2.1% | – |
| B1 | – | – | – | negligible effects |
